Legend:
[1] = target: recombinant biotinylated human FcRn (Immunitrack) (human) (UniProt P55899); assay: SPR; biotinylated human FcRn (~100 RU) captured on an SA sensor chip; 2-fold serial dilutions of albumin variants or GLP-1 albumin fusions injected in duplicates; pH 5.5 PBS (177 mM phosphate, 85 mM NaCl, 0.05% Tween 20), 25 °C, 40 µL/min; 1:1 Langmuir model
[2] = target: human FcRn of the human FcRn Affinity Column (Roche) (human) (UniProt P55899); assay: analytical FcRn affinity chromatography; human FcRn Affinity Column (Roche); albumin or GLP-1 albumin fusions (2 mg/mL) loaded at pH 5.5 and eluted by a pH gradient from 5.5 (20 mM MES/HCl, 140 mM NaCl) to 8.8 (20 mM Tris/HCl, 140 mM NaCl), 0.5 mL/min, 110 min, room temperature
[3] = target: recombinant biotinylated human FcRn (Immunitrack) (human) (UniProt P55899)
[4] = target: recombinant biotinylated human FcRn (Immunitrack) (human) (UniProt P55899); remark: listed apart in the source
[5] = target: human GLP-1 receptor (GLP-1R) on reporter cells (human) (UniProt P43220)
UniProt P43220, sequence (P43220 24-463): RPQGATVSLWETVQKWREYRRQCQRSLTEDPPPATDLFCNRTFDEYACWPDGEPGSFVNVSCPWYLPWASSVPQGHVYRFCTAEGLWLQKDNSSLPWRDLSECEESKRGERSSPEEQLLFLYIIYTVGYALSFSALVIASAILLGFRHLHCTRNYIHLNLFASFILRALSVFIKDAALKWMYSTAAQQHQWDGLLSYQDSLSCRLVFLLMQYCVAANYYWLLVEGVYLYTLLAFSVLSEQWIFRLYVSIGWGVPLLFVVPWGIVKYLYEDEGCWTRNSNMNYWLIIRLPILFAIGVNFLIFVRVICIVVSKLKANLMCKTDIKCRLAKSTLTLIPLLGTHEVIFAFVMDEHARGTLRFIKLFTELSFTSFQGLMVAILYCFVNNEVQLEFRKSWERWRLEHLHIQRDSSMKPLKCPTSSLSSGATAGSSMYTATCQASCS

[6] = target: recombinant biotinylated human FcRn (Immunitrack) (human) (UniProt P55899); remark: listed apart in the source

Kd [1] [nM]	koff [1] [s⁻¹]	kon [1] [M⁻¹ s⁻¹]	elution pH [2] [pH]	cellular recycling in HERA with HMEC-1-FcRn cells (800 nM), relative to GLP-1 WT [3]	plasma half-life after IV injection in homozygous human FcRn Tg32 mice (GLP-1 WT: 1.3 days) [4] [h]	EC50 of luciferase signal in human GLP-1R reporter cells (0.08–6250 nM, 23 h) [5] [nM]	plasma half-life after IV injection in hemizygous human FcRn Tg32 mice [6] [h]	EC50 of luciferase signal in human GLP-1R reporter cells (0.00062–50 nM, 23 h) [5] [nM]	Substance
0.2	–	–	–	–	–	–	–	–	GLP-1 QMP/LX (GLP-1 albumin fusion with QMP-engineered albumin lacking L585)
114	–	–	6.7	–	–	50	–	–	GLP-1 WT (albiglutide-mimic; two GLP-1(7-36) A2G in tandem fused to the N-terminus of human WT albumin) (from UniProt P02768 25-609)
0.3	4e-05	144000	–	–	–	–	108	–	QMP-engineered human albumin (E505Q, T527M, K573P), full-length (natural protein)
678	0.0197	29000	–	–	–	–	–	–	human albumin L585M (natural protein)
–	–	–	–	–	–	–	–	0.28	unfused GLP-1(7–36) included in the reporter assay kit (peptide)

Continued, substance first:

Substance	Kd [1] [nM]	koff [1] [s⁻¹]	kon [1] [M⁻¹ s⁻¹]	elution pH [2] [pH]	cellular recycling in HERA with HMEC-1-FcRn cells (800 nM), relative to GLP-1 WT [3]	plasma half-life after IV injection in homozygous human FcRn Tg32 mice (GLP-1 WT: 1.3 days) [4] [h]	EC50 of luciferase signal in human GLP-1R reporter cells (0.08–6250 nM, 23 h) [5] [nM]	plasma half-life after IV injection in hemizygous human FcRn Tg32 mice [6] [h]	EC50 of luciferase signal in human GLP-1R reporter cells (0.00062–50 nM, 23 h) [5] [nM]
GLP-1 LX (GLP-1 albumin fusion with WT albumin lacking L585)	515	0.0221	43000	6.3	2 fold less	21.6	–	–	–
GLP-1 QMP (GLP-1 albumin fusion with QMP-engineered albumin)	< 0.03	< 1e-05	381000	7.8	4.5 fold	64.8	44.4	–	–
QMP variant recombinantly expressed without the L585 residue (QMP/LX) (natural protein)	0.9	0.0001	115000	–	–	–	–	103	–
Tanzeum (albiglutide) (from UniProt P02768 25-609)	76.1	–	–	6.9	–	–	–	–	–
human albumin L585I (natural protein)	604	0.0175	29000	–	–	–	–	–	–
human albumin L585V (natural protein)	684	0.0233	34000	–	–	–	–	–	–

— article PMC12106674
